Series [1] can be described thus: melting temperature (DSF); higher = more thermostable. In a few lines: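 Values are melting temperatures from differential scanning fluorimetry. Candidate enzymes were expressed in E. coli C41(DE3), purified on nickel beads and freed by SUMO protease cleavage. In sealed PCR plates on a Bio-Rad CFX96, 45 μL enzyme (0 to 0.3 mg/mL) was combined with 5 μL 5X Sypro Orange. Fluorescence was recorded from 25 °C for 250 cycles, rising 0.3 °C per cycle at a ramp of 0.3 °C/s.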

A short description of series [2]: PET hydrolysis, aromatic products released after 48 h (umol product/mg enzyme); higher = more PET depolymerization activity. The settings on record: substrate: cryPow. In a few lines: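 Reactions ran in sealed plates without shaking for 48 h at 40 or 60 °C. Each held 3.5 mg amorphous PET film or crystalline PET powder, 450 μL buffer and 5 μg (50 μL) of tagless, SUMO-cleaved, nickel-purified candidate enzyme. Buffers were 50 mM NaCitrate at pH 4.5 or 5.5, 50 mM NaPhosphate at pH 6.5 or 7.5, and glycine at pH 8.5. The supernatant's aromatic product, read at 260 and 280 nm against buffer blanks, gives PET hydrolysis activity per mg enzyme.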

Series [3] in a line: purified protein yield per well (BCA); higher = higher soluble expression. The essentials:
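Candidate enzymes were produced in E. coli C41(DE3) grown in 2 mL autoinduction cultures containing 100 µg/mL kanamycin, first at 37 °C for 2 h and then at 18 °C for 40 h. After cell lysis, protein was captured on Ni-charged magnetic beads and freed by SUMO protease cleavage on an OT-2 robot. Purified protein yield per well was read with the Pierce Rapid Gold BCA kit. Values under 25 ug (0.1 mg/mL) fall below the detection threshold.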

Bounds are passed on as bounds.

On to “ATTSYQRGPNPTEQSVRAANGPFAYSQFAIPDAEATGFGEGTIYYPNNTSVGTFGGVVIAPGFNADQNSTVWLGKRLASHGFVAVTITTHELNDQPYERGKQILAALDYLTGQSPAFVRSRLDPARLAAVGHSMGGGGTLFAAAQRPSLKAIVPLAPWALAKNWSNVQVPTMILSGAQDASAPPAEHAEKFYASLTSAPEKAYAKLDVNHVRFAWEHPLIGKLVVSWLKRFVDEDTRYTQFLCPTATGAVLLEYRATCPLG [DP026]”, for which the melting temperature in series [1] worked out at 66.1 C. Also, the PET hydrolysis was 3 in series [2] (40 °C, pH 5.5); less than 3 in series [2] (40 °C, pH 6.5); less than 3 in series [2] (40 °C, pH 7.5); less than 3 in series [2] (40 °C, pH 8.5); less than 3 in series [2] (60 °C, pH 5.5); less than 3 in series [2] (60 °C, pH 6.5). Moreover, the PET hydrolysis in series [2] (60 °C, pH 7.5) is less than 3; in series [2] (60 °C, pH 8.5) it was less than 3. The “purified protein yield per well” value in series [3] amounted to 164 µg.

In the case of “ATYERGPAPTAQSIVADGPFSYATVAVPTQSSFGGGTIYYPTDTNQGTFGAVAVIPGFVGSLDNVAWIGSRLASHGFVVFTVATTNPFAFPGDRAAQLQAALTYLTQSSSVRDRVDPNRLAVAGHSMGGGGALEAVRNNPALKAAVALQPWDFGQNFSAIAVPSMIVGAQNDQVATVTSHSEPFYDQIPAGAEKAYLELAGAGHDAGQSVSNATQAGSMLSWLKRYVDEDTRYEQFLCPAPSGPSVAEYRDTCPA [DP045]”, the melting temperature in series [1] stood at 45.7 C. Besides, the PET hydrolysis in series [2] (40 °C, pH 5.5) was less than 3; in series [2] (40 °C, pH 6.5), less than 3; in series [2] (40 °C, pH 7.5), less than 3; in series [2] (40 °C, pH 8.5), less than 3. Moreover, in series [3], the “purified protein yield per well” value was found to be 37 µg.

Consider “ADNPYQRGPDPTTASVAATRGTFATAEQTVGGGNGFAAGKIYYPIDTSQGTFGAIAIVPGYTATWAAEGAWMGPWLASFGFVVIGIDTNSRNDYDTARGTQLLAALDYLTQRSPVSGRVDAKRLSVMGHSMGGGGAVYAAIHRPSLWAAVGLAPFSPSQNLTTDKVPALLLAGQNDGTVSPSSVQSLYNGIPAGVEKGYLELAGAGHGFPTSSNSVMMRRVIPWLKIFVDHDSRYSKFLCPSLADSTGISGYRSTCPLDVPGGGDPGPGDQAVSLVGAGSGKCIDVPNQSQANGTALVVWTCNGGTNQRWTPTSAGELRVYNGTKCMDAGSGQPGTAVTINACGGGNSQKWTVNATGTITNAQAGACLDVSGGGTADNTPVIVWNCTGAANQVWTRQM [ESM103]”, for which the melting temperature in series [1] was 51.7 C. Besides, the PET hydrolysis was less than 3 in series [2] (40 °C, pH 4.5); less than 3 in series [2] (40 °C, pH 5.5); less than 3 in series [2] (40 °C, pH 6.5); less than 3 in series [2] (40 °C, pH 7.5). The “purified protein yield per well” value in series [3] stood at 48.2 µg.

For “LNPYQRGPNPTDAILEASSGPYATSSISVPSIVSGFGGGRIYYPTTTADGTFGGIAISPGFTATWSSLSWLGPRLASHGFVVIGIETNTIYDQPTSRGQQLLAALDYLVNTSSVRTRVDSSRLAVAGHSMGGGGTLWAANSRPSLQAAIPLAPWNTDKSWSGVRVPTLIVGGQSDTVAPVATHSIPFYTSIPAASEKAYLELRSASHFFPQTVNTTVAVSMVSWLKRYVDDDTRYDPWLCPGPSGLSVSDYRDTCPA [TEP178]”, in series [1], the melting temperature came to 52 C. In addition, the PET hydrolysis in series [2] (40 °C, pH 4.5) was less than 3; in series [2] (40 °C, pH 5.5), 6; in series [2] (40 °C, pH 6.5) it was 21; in series [2] (40 °C, pH 7.5), 29; in series [2] (60 °C, pH 4.5), less than 3; in series [2] (60 °C, pH 5.5), less than 3. Besides, the PET hydrolysis in series [2] (60 °C, pH 6.5) was found to be 3; in series [2] (60 °C, pH 7.5) it was 4. In addition, the “purified protein yield per well” value in series [3] came to 64.5 µg.

In turn, “MAGAAGWPSTASAADNPYQRGPAPTAASIAADRGPFATAQVTVPRGNGFGGGVIYYPTDTSQGTFGAIAIAPGFSTAWSYYAWQGPRLASFGFVVIGIETNTLNDYADARAAQLLAALDYLVNSSSVRDRVDRNRLAVGGHSMGGGGAILAANQRPSLLTAVGQAPYVPDGSLSGIKSPTIIFAGQTDGTVTPQYAQNAYNTIPGSVERAYVEIANEGHGFPAGGGGGNSGAFARTMMIWLKLFVDKDTRYAPFLCPALTNANGISKYMASCPLDPPGGGPTASPTSTPTSTPTSTPTGSPPTGSTSSLRGVASGRCLDVNGASQSNGATVLIWDCNGQSNQKWTSTSASELRVYGGKCLDVNGGGTADGTAVIIWDCNGQNNQKWRFNSDSSITAVGANKCLDVSANGTANGTRVQIWSCTGGGNQKWTRV [ESM024]” came in with a melting temperature in series [1] of 62.8 C. Moreover, the PET hydrolysis was less than 3 in series [2] (40 °C, pH 4.5); less than 3 in series [2] (40 °C, pH 5.5); 3 in series [2] (40 °C, pH 6.5); 4 in series [2] (40 °C, pH 7.5). In addition, in series [3], the “purified protein yield per well” value stood at 86.8 µg.

Turning to “ETEYRKGPDPTEATVTAALGPFATASVSVPSSVAGFGGGVIHYPTDTSQGTFGAVAVAPGFLGSSANYAWMGPRLASQGFVVFLINTDSRLDQPPSRGDQLLAALDYLVTSSSVRARIDASRLAVAGHSMGGGGTLEAATDRPGLQAAIPLQPWHTVKSWPNVQVPTLIIGAENDTTAPVASHAEPFYVSIPAAAEKAYLELNNAEHRVGTAGDTTQAKFMIVWLKRYVDNDTRYEQFICPPPPAPSSEIQEYRNTCPG [TEP171]”, the melting temperature in series [1] turned out to be 44.2 C. Moreover, the PET hydrolysis is less than 3 in series [2] (40 °C, pH 4.5); less than 3 in series [2] (40 °C, pH 5.5); less than 3 in series [2] (40 °C, pH 6.5); less than 3 in series [2] (40 °C, pH 7.5); less than 3 in series [2] (60 °C, pH 4.5); less than 3 in series [2] (60 °C, pH 5.5). Moreover, the PET hydrolysis in series [2] (60 °C, pH 6.5) is less than 3; in series [2] (60 °C, pH 7.5), less than 3. The “purified protein yield per well” value in series [3] was found to be 59.3 µg.

For the sequence “ASYQRGPDPTVQSVAANRGTFPTAEITVPRGYGFNGGKIYYPTDTSQGTWGAIAAVPGYTASWAAEGAWMGPWLASFGFVVIGIDTNSPTDFDTARGTQLLAALDYLTGQSAVRDRVDPNRLAVLGHSMGGGGAISAAMRRPTLKAAIPLAPASFSQNLSTVRVPTLIMGARDDGTVTPSSINSLWATKPATTKGAYVELTGGGHGFPTWGNSQVTRREIPWLKIFLDNDNRYTQFLCPSLADNTGVSRYLSECPYGSTGQPTSPPSTPPPTSGGPVRAVGAGKCLDVPNASQTNDTQLAIWDCNGGTNQRWTRTAGKQLTVYGNKCLDAAGQGTTNGTRVIIWDCTGTANQQWNVNANGTITGVQSGLCLDVSGGSTANGALTQLWACNNGSNQQWRLG [ESM070]”, the melting temperature in series [1] was 64.6 C. Also, the PET hydrolysis is less than 3 in series [2] (40 °C, pH 4.5); 4 in series [2] (40 °C, pH 5.5); 10 in series [2] (40 °C, pH 6.5); 17 in series [2] (40 °C, pH 7.5); less than 3 in series [2] (60 °C, pH 4.5); less than 3 in series [2] (60 °C, pH 5.5). The PET hydrolysis was less than 3 in series [2] (60 °C, pH 6.5) and less than 3 in series [2] (60 °C, pH 7.5). Moreover, the “purified protein yield per well” value in series [3] was 254 µg.

The record behind these values is the supplement of paper PMC12455559.
